We go through 2 molecules from paper PMC2926616 (Nucleic Acids Research, 2010).

In one data set the target is T1, Human RAD51 (human, UniProt Q06609 1-339).
T1 sequence (looked up): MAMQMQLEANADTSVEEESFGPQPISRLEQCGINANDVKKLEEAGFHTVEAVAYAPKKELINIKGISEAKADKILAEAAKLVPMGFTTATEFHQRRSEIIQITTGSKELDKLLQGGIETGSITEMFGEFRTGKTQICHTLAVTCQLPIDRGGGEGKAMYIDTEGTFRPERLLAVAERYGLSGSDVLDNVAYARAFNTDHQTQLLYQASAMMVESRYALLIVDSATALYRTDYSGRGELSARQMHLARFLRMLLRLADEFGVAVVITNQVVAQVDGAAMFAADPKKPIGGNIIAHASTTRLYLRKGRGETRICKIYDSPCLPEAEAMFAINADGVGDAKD
In words: pull-down.

The next data set deals with RAD51 (human, UniProt Q06609 1-339). In words: EMSA.

B1: Human GEMIN2 (natural protein, UniProt O14893 1-280, looked up)
chain: MRRAELAGLKTMAWVPAESAVEELMPRLLPVEPCDLTEGFDPSVPPRTPQEYLRRVQIEAAQCPDVVVAQIDPKKLKRKQSVNISLSGCQPAPEGYSPTLQWQQQQVAQFSTVRQNVNKHRSHWKSQQLDSNVTMPKSEDEEGWKKFCLGEKLCADGAVGPATNESPGIDYVQIGFPPLLSIVSRMNQATVTSVLEYLSNWFGERDFTPELGRWLYALLACLEKPLLPEAHSLIRQLARRCSEVRLLVDSKDDERVPALNLLICLVSRYFDQRDLADEPS
For B1, the binding result in the data set with Human RAD51 is recorded as “binds”.

B2: 49-mer dsDNA (dsDNA)
DNA 1: GTCCCAGGCCATTACAGATCAATCCTGAGCATGTTTACCAAGCGCATTG
DNA 2: CAATGCGCTTGGTAAACATGCTCAGGATTGATCTGTAATGGCCTGGGAC
As for B2, in the data set with RAD51, the binding result is on record as “binds”.
